Assay results reported in paper PMC9210659.

Biological target: C16-Pks13(S1533A) (Pks13(S1533A) loaded with a C16 chain on the AT catalytic serine) (Mycobacterium tuberculosis H37Rv) (UniProt I6X8D2)
Assay: SEC + other: SAXS

With “C16-Pks13(S1533A) (Pks13(S1533A) loaded with a C16 chain on the AT catalytic serine) (from UniProt I6X8D2 1-1733) (enzyme)” the percent dimer was 60% and the stoichiometry N was 2.
